# Test results as given in paper PMC4957052 (The Journal of Biological Chemistry, 2016).
# T1: M. musculus αT-catenin (wild type, full length) (M. musculus, UniProt Q65CL1 1-895)
# T1 construct: Cloned into pGEX-TEV; cleaved from GST with tobacco etch virus protease; also called αT (testes)-catenin; WT αT-catenin; source: E. coli BL21(DE3), purified (glutathione-agarose, TEV cleavage, Mono Q, S200 gel filtration)
# T1 sequence (looked up): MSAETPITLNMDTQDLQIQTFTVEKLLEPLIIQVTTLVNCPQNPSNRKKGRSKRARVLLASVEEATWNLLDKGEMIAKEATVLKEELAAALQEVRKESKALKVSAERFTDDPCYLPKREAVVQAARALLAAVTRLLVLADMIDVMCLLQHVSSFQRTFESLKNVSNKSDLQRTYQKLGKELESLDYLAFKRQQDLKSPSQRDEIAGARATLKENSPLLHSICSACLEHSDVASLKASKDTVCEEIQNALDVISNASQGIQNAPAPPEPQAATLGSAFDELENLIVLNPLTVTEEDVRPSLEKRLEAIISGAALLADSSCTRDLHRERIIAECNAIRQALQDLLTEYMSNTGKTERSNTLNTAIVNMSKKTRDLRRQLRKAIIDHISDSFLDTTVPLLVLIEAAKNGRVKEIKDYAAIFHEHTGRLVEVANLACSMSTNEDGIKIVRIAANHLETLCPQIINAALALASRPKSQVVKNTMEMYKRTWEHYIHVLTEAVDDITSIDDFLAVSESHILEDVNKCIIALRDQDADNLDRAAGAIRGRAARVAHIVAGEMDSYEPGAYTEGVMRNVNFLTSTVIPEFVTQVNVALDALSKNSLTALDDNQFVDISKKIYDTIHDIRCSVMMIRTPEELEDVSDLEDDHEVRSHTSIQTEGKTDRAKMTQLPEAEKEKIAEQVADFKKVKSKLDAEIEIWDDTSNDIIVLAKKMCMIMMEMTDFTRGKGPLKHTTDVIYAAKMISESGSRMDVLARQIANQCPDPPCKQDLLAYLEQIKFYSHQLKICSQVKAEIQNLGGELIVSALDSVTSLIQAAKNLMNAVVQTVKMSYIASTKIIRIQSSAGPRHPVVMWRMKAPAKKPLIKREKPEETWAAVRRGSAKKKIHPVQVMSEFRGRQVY
# B1: GST-tagged full-length β-catenin (natural protein, mouse, UniProt Q02248 1-781, looked up)
# chain: MATQADLMELDMAMEPDRKAAVSHWQQQSYLDSGIHSGATTTAPSLSGKGNPEEEDVDTSQVLYEWEQGFSQSFTQEQVADIDGQYAMTRAQRVRAAMFPETLDEGMQIPSTQFDAAHPTNVQRLAEPSQMLKHAVVNLINYQDDAELATRAIPELTKLLNDEDQVVVNKAAVMVHQLSKKEASRHAIMRSPQMVSAIVRTMQNTNDVETARCTAGTLHNLSHHREGLLAIFKSGGIPALVKMLGSPVDSVLFYAITTLHNLLLHQEGAKMAVRLAGGLQKMVALLNKTNVKFLAITTDCLQILAYGNQESKLIILASGGPQALVNIMRTYTYEKLLWTTSRVLKVLSVCSSNKPAIVEAGGMQALGLHLTDPSQRLVQNCLWTLRNLSDAATKQEGMEGLLGTLVQLLGSDDINVVTCAAGILSNLTCNNYKNKMMVCQVGGIEALVRTVLRAGDREDITEPAICALRHLTSRHQEAEMAQNAVRLHYGLPVVVKLLHPPSHWPLIKATVGLIRNLALCPANHAPLREQGAIPRLVQLLVRAHQDTQRRTSMGGTQQQFVEGVRMEEIVEGCTGALHILARDVHNRIVIRGLNTIPLFVQLLYSPIENIQRVAAGVLCELAQDKEAAEAIEAEGATAPLTELLHSRNEGVATYAAAVLFRMSEDKPQDYKKRLSVELTSSLFRTEPMAWNETADLGLDIGAQGEALGYRQDDPSYRSFHSGGYGQDALGMDPMMEHEMGGHHPGADYPVDGLPDLGHAQDLMDGLPPGDSNQLAWFDTDL
# notes: β-catenin, full length; also called GST-β-catenin; GST-tagged β-catenin
# Biological target: T1, M. musculus αT-catenin (wild type, full …)
# Experiment: pull-down; 1-15 μg αT-catenin or V94D added to 15 μg GST-β-catenin on glutathione-agarose in 20 mM Tris pH 8, 150 mM NaCl, 5 mM DTT; >2 h at 4 °C (legend: 1 h at room temperature); five washes in PBS + 0.05% Tween 20, 5 mM DTT; Coomassie
# Details: both partners purified
binder,measurement,value
B1,binding result,binds
